Experimental data reported in paper PMC11479587.

Target: Ssa1 (yeast (S. cerevisiae)) (UniProt P10591)
Sequence (P10591 whole entry): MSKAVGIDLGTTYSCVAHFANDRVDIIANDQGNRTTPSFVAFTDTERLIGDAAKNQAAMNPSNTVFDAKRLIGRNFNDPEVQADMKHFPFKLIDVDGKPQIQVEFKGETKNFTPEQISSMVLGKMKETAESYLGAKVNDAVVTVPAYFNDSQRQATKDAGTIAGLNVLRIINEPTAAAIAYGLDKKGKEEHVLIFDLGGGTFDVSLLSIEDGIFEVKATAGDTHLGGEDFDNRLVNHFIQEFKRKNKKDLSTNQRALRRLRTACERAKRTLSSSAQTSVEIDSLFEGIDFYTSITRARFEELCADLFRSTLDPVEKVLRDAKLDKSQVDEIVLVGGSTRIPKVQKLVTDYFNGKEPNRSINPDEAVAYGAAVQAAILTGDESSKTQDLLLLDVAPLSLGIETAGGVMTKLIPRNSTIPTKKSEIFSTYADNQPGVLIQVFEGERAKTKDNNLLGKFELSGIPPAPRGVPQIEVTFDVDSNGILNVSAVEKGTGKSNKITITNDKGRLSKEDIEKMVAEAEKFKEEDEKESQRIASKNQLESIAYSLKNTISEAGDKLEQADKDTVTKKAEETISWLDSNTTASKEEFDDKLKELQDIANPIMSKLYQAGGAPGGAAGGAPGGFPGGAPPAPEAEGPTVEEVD

renaturation of heat-aggregated GFP by Ssa1-Sis1 (1 µM each); concentration of Sse1-2 against Sse1 WT needed for the same activity; no inhibition up to 2 µM Sse1-2: 20 times
Substance: Sse1-2 variant (N572Y E575A) (from UniProt P32589 1-693) (natural protein)
